These are literature values, as cited in PMC9027846.

The data set addresses Plasmin (Homo sapiens) (UniProt P00747). The data set is described as follows: BLI.
Chain of UniProt P00747 (P00747 581-810): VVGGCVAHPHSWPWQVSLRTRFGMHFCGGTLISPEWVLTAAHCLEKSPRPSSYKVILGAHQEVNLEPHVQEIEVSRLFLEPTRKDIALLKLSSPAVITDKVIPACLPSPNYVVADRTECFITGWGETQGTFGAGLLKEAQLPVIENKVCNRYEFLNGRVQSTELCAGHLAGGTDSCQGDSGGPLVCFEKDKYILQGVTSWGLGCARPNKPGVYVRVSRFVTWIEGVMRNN

On to AaTI (from UniProt Q177W0), for which the Kd was 62.8 nM.

One may read the Kd as the concentration at which binding is half-saturated.
